Values quoted from earlier work, collected in patent publication US6610516B1, “Cell culture process” (Genentech, Inc., priority 1999, dated 2003).
Residue numbers refer to the chain shown, from its start. In names and notes the source's numbering stands.

B1: N117Q: t-PA variant wherein asparagine at position 117 of wild-type human t-PA was substituted with glutamine (protein, UniProt P00750 36-562, looked up, variant N117Q)
Tissue-type plasminogen …: SYQVICRDEKTQMIYQQHQSWLRPVLRSNRVEYCWCNSGRAQCHSVPVKSCSEPRCFNGGTCQQALYFSDFVCQCPEGFAGKCCEIDTRATCYEDQGISYRGTWSTAESGAECTNWQSSALAQKPYSGRRPDAIRLGLGNHNYCRNPDRDSKPWCYVFKAGKYSSEFCSTPACSEGNSDCYFGNGSAYRGTHSLTESGASCLPWNSMILIGKVYTAQNPSAQALGLGKHNYCRNPDGDAKPWCHVLKNRRLTWEYCDVPSCSTCGLRQYSQPQFRIKGGLFADIASHPWQAAIFAKHRRSPGERFLCGGILISSCWILSAAHCFQERFPPHHLTVILGRTYRVVPGEEEQKFEVEKYIVHKEFDDDTYDNDIALLQLKSDSSRCAQESSVVRTVCLPPADLQLPDWTECELSGYGKHEALSPFYSERLKEAHVRLYPSSRCTSQHLLNRTVTDNMLCAGDTRSGGPQANLHDACQGDSGGPLVCLNDGRMTLVGIISWGLGCGQKDVPGVYTKVTNYLDWIRDNMRP
B2: TNK t-PA: t-PA variant: glycosylation site added at position 103, removed at 117, positions 296-299 replaced by AAAA (protein, UniProt P00750 36-562, looked up, variant T103N N117Q K296A H297A R298A R299A)
Tissue-type plasminogen …: B1 Tissue-type plasminogen … with T103N, K296A, H297A, R298A, R299A

Experiments:
fibrin = details: Keyt et al. 1994

| Molecule | Clearance rate versus wild-type human t-PA (Hotchkiss et al., Lau et al.) | Fibrin specificity versus wild-type human t-PA (fibrin) | Circulatory half-life versus wild-type human t-PA (Keyt et al. 1994) |
| --- | --- | --- | --- |
| B1 | about two-fold slower clearance rate |  |  |
| B2 |  | markedly better fibrin specificity | increased circulatory half-life |
